Columns and labels:
[1] = target: extracellular part of FcɛRIα with the transmembrane domain of Her2 at its C-terminus, displayed on the stable CHO cell line FI5F10 (UniProt P12319); assay: flow cytometry on cells; 7.5 nM IgE alone (positive control), or preincubated with 750 nM QME5 or with equimolar Omalizumab, added to FI5F10 cells; after washing 5 μg/mL FITC_GAH IgE detects membrane-binding IgE
FcεRIα (Homo sapiens) = FcεRIα (Homo sapiens) (UniProt P12319); assay: given as Ka; conditions: cited from earlier work

percentage of positive cells (7.5 nM IgE, positive control) [1]	Substance	Kd (FcεRIα (Homo sapiens))
69.1%	human IgE (ligand)	–
–	IgE Cε3 Cε3 (from UniProt P01854)	200 nM

— PMC3614804
